From patent US20100004182A1 (MARUHA, published 2010)

Key:
[1] = target: xanthine oxidase (XO) of cow's milk (from Wako Pure Chemical) (cow, UniProt P80457 2-1332); experiment: cell-based or functional assay
[2] = target: xanthine oxidase (XO) from butter milk (from Wako Pure Chemical) (UniProt P80457 2-1332); experiment: cell-based or functional assay
Chain of xanthine oxidase (XO) from butter milk (from Wako Pure Chemical) (P80457 2-1332 limits assumed): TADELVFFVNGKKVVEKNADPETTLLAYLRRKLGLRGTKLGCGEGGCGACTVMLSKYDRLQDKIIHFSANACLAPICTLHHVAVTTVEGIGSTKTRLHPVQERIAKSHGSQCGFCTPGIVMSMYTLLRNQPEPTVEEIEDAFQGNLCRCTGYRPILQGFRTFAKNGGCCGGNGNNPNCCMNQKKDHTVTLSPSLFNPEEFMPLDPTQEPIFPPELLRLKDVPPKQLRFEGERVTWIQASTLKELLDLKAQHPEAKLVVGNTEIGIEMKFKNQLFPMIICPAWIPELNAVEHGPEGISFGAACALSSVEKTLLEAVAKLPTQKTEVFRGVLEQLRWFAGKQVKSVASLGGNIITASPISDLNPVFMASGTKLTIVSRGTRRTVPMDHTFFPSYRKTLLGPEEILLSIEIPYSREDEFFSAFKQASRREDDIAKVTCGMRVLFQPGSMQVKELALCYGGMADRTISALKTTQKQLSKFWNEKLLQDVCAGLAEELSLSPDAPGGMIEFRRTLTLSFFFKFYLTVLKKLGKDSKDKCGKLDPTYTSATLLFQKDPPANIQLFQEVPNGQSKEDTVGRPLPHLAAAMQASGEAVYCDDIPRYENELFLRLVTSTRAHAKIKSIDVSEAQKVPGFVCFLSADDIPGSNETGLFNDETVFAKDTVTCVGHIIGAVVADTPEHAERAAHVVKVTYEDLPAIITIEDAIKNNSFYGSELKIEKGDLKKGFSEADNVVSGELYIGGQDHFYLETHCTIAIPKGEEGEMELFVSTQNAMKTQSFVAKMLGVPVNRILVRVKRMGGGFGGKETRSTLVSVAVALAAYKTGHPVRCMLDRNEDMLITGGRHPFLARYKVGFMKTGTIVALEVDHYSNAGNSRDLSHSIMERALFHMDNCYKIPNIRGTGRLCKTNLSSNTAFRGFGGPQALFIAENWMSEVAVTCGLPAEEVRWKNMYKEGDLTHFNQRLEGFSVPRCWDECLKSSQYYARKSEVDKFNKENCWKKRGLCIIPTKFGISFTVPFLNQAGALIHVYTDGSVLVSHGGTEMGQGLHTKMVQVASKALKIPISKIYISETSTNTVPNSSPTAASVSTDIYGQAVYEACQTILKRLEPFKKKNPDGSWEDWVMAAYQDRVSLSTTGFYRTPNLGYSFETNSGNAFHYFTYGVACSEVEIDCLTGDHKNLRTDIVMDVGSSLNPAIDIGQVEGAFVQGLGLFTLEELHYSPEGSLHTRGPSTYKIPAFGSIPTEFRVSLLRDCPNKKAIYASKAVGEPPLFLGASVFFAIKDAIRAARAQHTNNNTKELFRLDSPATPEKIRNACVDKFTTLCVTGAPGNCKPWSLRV

Chain of xanthine oxidase (XO) of cow's milk (from Wako Pure Chemical) (P80457 2-1332 limits assumed): as above

| 50% inhibitory concentration (IC50) of xanthine oxidase activity (uric acid produced from xanthine, OD at 292 nm) [1] | 50% inhibitory concentration (IC50) of xanthine oxidase activity (uric acid produced from xanthine, OD at 292 nm) [2] | Binder |
| --- | --- | --- |
| 750 µM |  | LDNY [peptide LDNY] |
| 1200 µM |  | YLDN [peptide YLDN] |
|  | 3700 µM | YINY [polypeptide having SEQ ID No. 2 (YINY)] |
| 1700 µM |  | LD [peptide LD] |
| 500 µM |  | DN [peptide DN] |
